Data as given in the supplement of paper PMC10567573.

B1: ANKRD44 (parent)
chain: FHCIETLVTTGANVNETDDWGRTA

Variants of: B1
Assay: protein stability index of a GFP-peptide fusion (GPS, HEK-293T) (PSI 1-6); higher = more stable
Conditions: c terminus: a fixed tail appended
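Further: lentivirally expressed fusions sorted by FACS into six bins by GFP to DsRed ratio, PSI derived from sequencing read proportions per bin multiplied by bin number.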

Variant	protein stability index
FHCIETLVTTIANVNETDDWGRTA [G11I]	2.62
FHCIETLVTTKANVNETDDWGRTA [G11K]	2.29
FHCIETLVTTLANVNETDDWGRTA [G11L]	2.44
FHCIETLVTTMANVNETDDWGRTA [G11M]	1.5
FHCIETLVTTNANVNETDDWGRTA [G11N]	2
FHCIETLVTTPANVNETDDWGRTA [G11P]	2.23
FHCIETLVTTQANVNETDDWGRTA [G11Q]	1.74
FHCIETLVTTRANVNETDDWGRTA [G11R]	2.6
FHCIETLVTTSANVNETDDWGRTA [G11S]	1.68
FHCIETLVTTTANVNETDDWGRTA [G11T]	2.29
FHCIETLVTTVANVNETDDWGRTA [G11V]	2.09
FHCIETLVTTWANVNETDDWGRTA [G11W]	2.99
FHCIETLVTTYANVNETDDWGRTA [G11Y]	2.39
FHCIETLVTTGCNVNETDDWGRTA [A12C]	1.1
FHCIETLVTTGDNVNETDDWGRTA [A12D]	1.87
FHCIETLVTTGENVNETDDWGRTA [A12E]	2.31
FHCIETLVTTGFNVNETDDWGRTA [A12F]	2.61
FHCIETLVTTGGNVNETDDWGRTA [A12G]	1.52
FHCIETLVTTGHNVNETDDWGRTA [A12H]	2.1
FHCIETLVTTGINVNETDDWGRTA [A12I]	1.7
FHCIETLVTTGKNVNETDDWGRTA [A12K]	2.07
FHCIETLVTTGLNVNETDDWGRTA [A12L]	2.45
FHCIETLVTTGMNVNETDDWGRTA [A12M]	2.14
FHCIETLVTTGNNVNETDDWGRTA [A12N]	2.07

Variant	protein stability index
FHCIETLVTTGPNVNETDDWGRTA [A12P]	1.81
FHCIETLVTTGQNVNETDDWGRTA [A12Q]	2.09
FHCIETLVTTGRNVNETDDWGRTA [A12R]	2.33
FHCIETLVTTGSNVNETDDWGRTA [A12S]	2.73
FHCIETLVTTGTNVNETDDWGRTA [A12T]	2.82
FHCIETLVTTGVNVNETDDWGRTA [A12V]	1.59
FHCIETLVTTGWNVNETDDWGRTA [A12W]	3.07
FHCIETLVTTGYNVNETDDWGRTA [A12Y]	1.88
FHCIETLVTTGAAVNETDDWGRTA [N13A]	2.56
FHCIETLVTTGACVNETDDWGRTA [N13C]	1.59
FHCIETLVTTGADVNETDDWGRTA [N13D]	2.51
FHCIETLVTTGAEVNETDDWGRTA [N13E]	1.69
FHCIETLVTTGAFVNETDDWGRTA [N13F]	3.16
FHCIETLVTTGAGVNETDDWGRTA [N13G]	2.21
FHCIETLVTTGAHVNETDDWGRTA [N13H]	2.13
FHCIETLVTTGAIVNETDDWGRTA [N13I]	2.31
FHCIETLVTTGAKVNETDDWGRTA [N13K]	2.36
FHCIETLVTTGALVNETDDWGRTA [N13L]	2.11
FHCIETLVTTGAMVNETDDWGRTA [N13M]	1.5
FHCIETLVTTGAPVNETDDWGRTA [N13P]	2.41
FHCIETLVTTGAQVNETDDWGRTA [N13Q]	2.3
FHCIETLVTTGARVNETDDWGRTA [N13R]	2.1
FHCIETLVTTGASVNETDDWGRTA [N13S]	2.39
FHCIETLVTTGATVNETDDWGRTA [N13T]	2.18

Variant	protein stability index
FHCIETLVTTGAVVNETDDWGRTA [N13V]	2.61
FHCIETLVTTGAWVNETDDWGRTA [N13W]	1.77
FHCIETLVTTGAYVNETDDWGRTA [N13Y]	1.68
FHCIETLVTTGANANETDDWGRTA [V14A]	2.2
FHCIETLVTTGANCNETDDWGRTA [V14C]	2.19
FHCIETLVTTGANDNETDDWGRTA [V14D]	2.26
FHCIETLVTTGANENETDDWGRTA [V14E]	3.04
FHCIETLVTTGANFNETDDWGRTA [V14F]	2.14
FHCIETLVTTGANGNETDDWGRTA [V14G]	1.86
FHCIETLVTTGANHNETDDWGRTA [V14H]	1.94
FHCIETLVTTGANINETDDWGRTA [V14I]	1.82
FHCIETLVTTGANKNETDDWGRTA [V14K]	2.31
FHCIETLVTTGANLNETDDWGRTA [V14L]	2.08
FHCIETLVTTGANMNETDDWGRTA [V14M]	2.07
FHCIETLVTTGANNNETDDWGRTA [V14N]	3
FHCIETLVTTGANPNETDDWGRTA [V14P]	2.71
FHCIETLVTTGANQNETDDWGRTA [V14Q]	2.11
FHCIETLVTTGANRNETDDWGRTA [V14R]	2.61
FHCIETLVTTGANSNETDDWGRTA [V14S]	2.41
FHCIETLVTTGANTNETDDWGRTA [V14T]	2.93
FHCIETLVTTGANWNETDDWGRTA [V14W]	1.54
FHCIETLVTTGANYNETDDWGRTA [V14Y]	1.77
FHCIETLVTTGANVAETDDWGRTA [N15A]	1.76
FHCIETLVTTGANVCETDDWGRTA [N15C]	1.9

Variant	protein stability index
FHCIETLVTTGANVDETDDWGRTA [N15D]	2.29
FHCIETLVTTGANVEETDDWGRTA [N15E]	2.13
FHCIETLVTTGANVFETDDWGRTA [N15F]	1.96
FHCIETLVTTGANVGETDDWGRTA [N15G]	1.85
FHCIETLVTTGANVHETDDWGRTA [N15H]	2.17
FHCIETLVTTGANVIETDDWGRTA [N15I]	1.54
FHCIETLVTTGANVKETDDWGRTA [N15K]	2.44
FHCIETLVTTGANVLETDDWGRTA [N15L]	2.21
FHCIETLVTTGANVMETDDWGRTA [N15M]	1.69
FHCIETLVTTGANVPETDDWGRTA [N15P]	2.34
FHCIETLVTTGANVQETDDWGRTA [N15Q]	2.18
FHCIETLVTTGANVRETDDWGRTA [N15R]	2.01
FHCIETLVTTGANVSETDDWGRTA [N15S]	1.64
FHCIETLVTTGANVTETDDWGRTA [N15T]	3.27
FHCIETLVTTGANVVETDDWGRTA [N15V]	2
FHCIETLVTTGANVWETDDWGRTA [N15W]	2.14
FHCIETLVTTGANVYETDDWGRTA [N15Y]	1.96
FHCIETLVTTGANVNATDDWGRTA [E16A]	1.98
FHCIETLVTTGANVNCTDDWGRTA [E16C]	2.16
FHCIETLVTTGANVNDTDDWGRTA [E16D]	2.17
FHCIETLVTTGANVNFTDDWGRTA [E16F]	1.86
FHCIETLVTTGANVNGTDDWGRTA [E16G]	1.79
